The experiment concerns the target T1, CD3 (Example 7).
T1 construct: Partner of the 145-2C11 Fab and its fusions
The experiment in a line: SPR, biotinylated CD3 on SA chip, Langmuir 1:1. On the procedure: For SPR-analysis of PD1/CD3, a CM5 sensor Chip (GE Healthcare) with immobilized target PD1 (about 800 RU) was prepared. CD3 was 10 times biotinylated and immobilized on SA coupled sensor chip (GE Healthcare) of about 200 RU. Specific binding of biotin and streptavidin provides a strong interaction of the target protein on the chip. Injection of free biotin blocks unbound streptavidin avoiding unspecific interaction during measurement. Determination of dissociation constant and data evaluation was equal to Example 6.
For orientation: In SPR one partner is held on a chip, and binding of the other changes the refractive index at the surface.

T1 sequence (P22646 22-108): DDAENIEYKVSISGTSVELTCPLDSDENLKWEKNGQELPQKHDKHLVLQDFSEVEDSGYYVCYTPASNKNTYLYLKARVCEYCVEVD

B1: 145-2C11 Fab Fragment (Fab, V domains shown)
VH: EVQLVESGGGLVQPGKSLKLSCEASGFTFSGYGMHWVRQAPGRGLESVAYITSSSINIKYADAVKGRFTVSRDNAKNLLFLQMNILKSEDTAMYYCARFDWDKNYWGQGTMVTVSS
VL: DIQMTQSPSSLPASLGDRVTINCQASQDISNYLNWYQQKPGKAPKLLIYYTNKLADGVPSRFSGSGSGRDSSFTISSLESEDIGSYYCQQYYNYPWTFGPGTKLEIKR
notes: also called PID 38; CD3 specific Fab fragment
By Kd is commonly meant the concentration at which binding is half-saturated. Higher therefore signals weaker binding. Usually koff stands for the rate constant with which the complex falls apart. The kon is the rate constant with which the complex forms. Consider B1, for which the affinity, expressed as Kd, was 0.0134 µM; the koff worked out at 0.00296 s⁻¹; the kon came out at 221000 M⁻¹ s⁻¹.

Values taken from patent US20190292266A1 (NAVIGO PROTEINS, published 2019).
